Changes are numbered by the printed parent chain. Names may count otherwise. “And” between values parts separate entries of the source, which are not always exact repeats. Identical values can stand only once. Like-named read-outs stand apart in the source and are kept apart here. Values belong to the molecule of their own block, whether it stands above or below them.
Tests used:
[1] = target: _(MPPΔ3)Skd3_WB (MPP-cleaved Skd3 without the C-terminal hydrophobic residues of the inhibitory sequence, with E455Q) (human); assay: mass photometry
[2] = target: _(MPPΔ3)Skd3_WB (MPP-cleaved Skd3 without the C-terminal hydrophobic residues of the inhibitory sequence, with E455Q) (human); assay: mass photometry; remark: listed apart in the source
FITC-casein [3] = target: FITC-casein (UniProt P02662); assay: fluorescence polarisation
FITC-casein [4] = target: FITC-casein (UniProt P02662); assay: fluorescence polarisation; remark: listed apart in the source
[5] = target: the molecule itself; assay: electron microscopy, 2D class averages
mass photometry = target: the molecule itself; assay: mass photometry

FITC-casein, sequence (P02662 16-214): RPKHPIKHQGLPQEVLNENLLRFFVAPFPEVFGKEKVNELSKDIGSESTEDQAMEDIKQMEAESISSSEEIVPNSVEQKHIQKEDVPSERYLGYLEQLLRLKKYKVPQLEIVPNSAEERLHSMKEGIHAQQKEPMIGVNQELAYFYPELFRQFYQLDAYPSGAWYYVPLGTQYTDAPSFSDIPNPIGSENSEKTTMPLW

stoichiometry N [1]: 6
stoichiometry N [2]: 12
Molecule: _(MPPΔ3)Skd3_WB (MPP-cleaved Skd3 without the C-terminal hydrophobic residues of the inhibitory sequence, with E455Q) (enzyme)

Kd (FITC-casein [3]): 3.4 µM
Kd (FITC-casein [4]): 0.86 µM
B1: _(PARL)Skd3 (PARL-cleaved Skd3, human ClpB), wild type (enzyme, UniProt Q9H078 127-707, looked up)
chain: YSKSPSNKDAALLEAARANNMQEVSRLLSEGADVNAKHRLGWTALMVAAINRNNSVVQVLLAAGADPNLGDDFSSVYKTAKEQGIHSLEDGGQDGASRHITNQWTSALEFRRWLGLPAGVLITREDDFNNRLNNRASFKGCTALHYAVLADDYRTVKELLDGGANPLQRNEMGHTPLDYAREGEVMKLLRTSEAKYQEKQRKREAEERRRFPLEQRLKEHIIGQESAIATVGAAIRRKENGWYDEEHPLVFLFLGSSGIGKTELAKQTAKYMHKDAKKGFIRLDMSEFQERHEVAKFIGSPPGYVGHEEGGQLTKKLKQCPNAVVLFDEVDKAHPDVLTIMLQLFDEGRLTDGKGKTIDCKDAIFIMTSNVASDEIAQHALQLRQEALEMSRNRIAENLGDVQISDKITISKNFKENVIRPILKAHFRRDEFLGRINEIVYFLPFCHSELIQLVNKELNFWAKRAKQRHNITLLWDREVADVLVDGYNVHYGARSIKHEVERRVVNQLAAAYEQDLLPGGCTLRITVEDSDKQLLKSPELPSPQAEKRLPKLRLEIIDKDSKTRRLDIRAPLHPEKVCNTI
stoichiometry N [5]: 6 and 7

B2: Skd3_L1,L2GH_WB (_(PARL)Skd3 with the L1GH and L2GH turn loop mutations and E455Q) (enzyme)
chain: B1 chain with N19G, N20H, R52G, N53H, E329Q
ratio of dodecamer relative to hexamer (mass photometry): 0.41 ± 0.12
stoichiometry N (mass photometry): 6 and 12

Kd (FITC-casein [3]): 3.6 µM
B3: _(PARL)Skd3_WB (PARL-cleaved Skd3 with the Walker B mutation E455Q) (enzyme, human, UniProt Q9H078 127-707, looked up)
chain: B1 chain with E329Q
stoichiometry N (mass photometry): 6

Kd (FITC-casein [3]): 3.7 µM
B4: _(PARL)Skd3_ARD (isolated ankyrin repeat domain of Skd3) (domain or fragment)
chain: VTTGSLGEPQWLRVATGGRPGTSPALFSGRGAATGGRQGGRFDTKCLAAATWGRLPGPEETLPGQDSWNGVPSRAGLGMCALAAALVVHCYSKSPSNKDAALLEAARANNMQEVSRLLSEGADVNAKHRLGWTALMVAAINRNNSVVQVLLAAGADPNLGDDFSSVYKTAKEQGIHSLEDGGQDGASRHITNQWTSALEFRRWLGLPAGVLITREDDFNNRLNNRASFKGCTALHYAVLADDYRTVKELLDGGANPLQRNEMGHTPLDYAREGEVMKLLRTSEAKYQEKQR

Reference: PMC10171807 (Science Advances, 2023)
